Laboratory results: patent publication US20240084003A1 (SIMCERE ZAIMING PHARMACEUTICAL, published 2024)
Values belong to the binder of their own block, whether it stands above or below them.

How the values were obtained:
[1] = molecular target: T1, murine CD22 protein (ACROBiosystems, SI2-M52Ha) (murine, UniProt P35329 22-708); assay: ELISA, coated murine CD22, 0.01 nM Ab
T1 construct: extracellular domain; also called murine CD22-ECD; murine CD22-ECD-His
T1 sequence (looked up): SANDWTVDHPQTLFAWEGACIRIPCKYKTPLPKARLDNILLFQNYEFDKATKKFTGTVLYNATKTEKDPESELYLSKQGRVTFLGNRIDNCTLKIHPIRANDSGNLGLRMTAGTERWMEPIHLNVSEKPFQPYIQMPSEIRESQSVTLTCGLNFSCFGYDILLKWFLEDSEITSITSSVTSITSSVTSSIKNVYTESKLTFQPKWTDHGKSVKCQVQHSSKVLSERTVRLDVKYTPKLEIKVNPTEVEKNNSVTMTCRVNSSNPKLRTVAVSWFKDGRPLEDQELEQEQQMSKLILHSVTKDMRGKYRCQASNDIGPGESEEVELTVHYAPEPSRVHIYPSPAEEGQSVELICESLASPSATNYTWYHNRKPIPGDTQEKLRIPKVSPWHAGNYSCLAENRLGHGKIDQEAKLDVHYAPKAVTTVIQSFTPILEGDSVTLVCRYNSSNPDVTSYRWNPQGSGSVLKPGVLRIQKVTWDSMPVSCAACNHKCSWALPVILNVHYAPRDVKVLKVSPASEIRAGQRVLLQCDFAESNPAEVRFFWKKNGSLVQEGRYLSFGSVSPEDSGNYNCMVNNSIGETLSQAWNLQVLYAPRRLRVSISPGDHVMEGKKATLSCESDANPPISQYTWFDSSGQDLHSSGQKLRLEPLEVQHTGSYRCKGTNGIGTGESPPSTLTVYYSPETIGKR
Description: (§1) In order to detect the binding activity of CD22 human-murine chimeric antibodies to CD22 protein, the purified human CD22-ECD-His protein obtained in Example 2 was diluted with PBS to a final concentration of 2 μg/mL, and then added to 96-well ELISA plate at 100 μl/well. The plate was sealed with plastic film and incubated overnight at 4° C., the plate was washed 2 times with PBS the next day, and then a blocking solution [PBS+2% (w/w) BSA] was added for blocking at room temperature for 2 hours. […] After incubation at 37° C. for 2 hours, the plate was washed 3 times with PBS. HRP (horseradish peroxidase)-labeled secondary antibody (purchased from Sigma, catalog number: A0170) was added, and incubated at 37° C. for 2 hours, and the plate was washed 5 times with PBS. TMB substrate was added at 50 μl/well, and incubated at room temperature for 30 minutes, then a stop solution (1.0 N HCl) was added at 50 μl/well.
(§2) In order to detect the species cross-binding activity of the chimeric antibodies, an ELISA plate was coated with commercial murine CD22 protein (ACROBiosystems, catalog number: SI2-M52Ha) and monkey CD22 protein (ACROBiosystems, catalog number: SI2-R52Ha), respectively, and the ELISA detection was performed according to the method in Example 5.1.

[2] = molecular target: T1, murine CD22 protein (ACROBiosystems, …); assay: ELISA, coated murine CD22, 0.0001 nM Ab
Description: as §1, §2

[3] = molecular target: T1, murine CD22 protein (ACROBiosystems, …); assay: ELISA, coated murine CD22, 10 nM Ab
Description: as §1, §2

[4] = molecular target: T2, human CD22, full length, on CHO-K1-human CD22 2C4 cells (human, UniProt P20273 20-847); assay: FACS, CHO-K1-human CD22 2C4 cells
T2 construct: Full-length human CD22 (NCBI NP_001762.2) stably transfected into CHO-K1
T2 sequence: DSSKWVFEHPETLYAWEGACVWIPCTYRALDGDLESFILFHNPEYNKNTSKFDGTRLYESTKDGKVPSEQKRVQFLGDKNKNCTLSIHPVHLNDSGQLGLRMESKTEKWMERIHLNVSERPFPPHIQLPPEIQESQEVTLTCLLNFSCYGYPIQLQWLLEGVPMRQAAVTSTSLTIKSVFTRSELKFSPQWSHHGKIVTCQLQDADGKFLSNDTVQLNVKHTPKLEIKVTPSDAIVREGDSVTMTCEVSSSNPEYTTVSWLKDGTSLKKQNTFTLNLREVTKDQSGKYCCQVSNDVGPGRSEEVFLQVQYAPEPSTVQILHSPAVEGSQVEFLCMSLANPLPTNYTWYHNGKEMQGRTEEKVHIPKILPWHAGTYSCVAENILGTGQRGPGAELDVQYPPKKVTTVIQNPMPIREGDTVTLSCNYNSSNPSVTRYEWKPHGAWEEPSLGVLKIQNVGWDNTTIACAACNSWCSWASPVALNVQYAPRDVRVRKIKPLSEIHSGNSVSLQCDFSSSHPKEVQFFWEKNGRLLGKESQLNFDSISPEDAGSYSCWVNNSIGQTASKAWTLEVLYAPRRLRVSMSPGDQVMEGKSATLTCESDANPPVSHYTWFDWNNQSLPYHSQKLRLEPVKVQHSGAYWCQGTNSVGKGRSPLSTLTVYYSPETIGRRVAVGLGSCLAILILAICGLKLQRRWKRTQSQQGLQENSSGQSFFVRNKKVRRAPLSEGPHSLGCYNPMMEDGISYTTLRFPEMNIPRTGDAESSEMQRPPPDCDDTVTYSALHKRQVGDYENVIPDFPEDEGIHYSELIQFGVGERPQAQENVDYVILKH
Description: (§3) The required cells were scale-up cultured in a T-75 cell culture flask to the logarithmic growth phase. For the adherent cell CHO-K1, the medium was aspirated, the cells were washed 2 times with PBS buffer, and then digested with trypsin. After the digestion was terminated, the cells were washed 2 times with PBS buffer. For suspension cell Raji, the medium supernatant was directly centrifuged and discarded, and the cell pellet was washed 2 times with PBS. After counting the cells in the previous step, the cell pellet was resuspended with [PBS+2% (w/w) BSA] blocking solution to 2×10⁶ cells/ml, and added to a 96-well FACS reaction plate at 50 μl/well, and then the chimeric antibody test sample was added at 50 μl/well, and incubated on ice for 2 hours. The mixture was centrifuged and washed 3 times with PBS buffer, Alexa Flour 488-labeled secondary antibody (purchased from Invitrogen, catalog number: A-11013) was added at 50 μl/well, and incubated on ice for 1 hour. The obtained mixture was centrifuged and washed 5 times with PBS, and FACS (FACS Canto™, purchased from BD Company) was used for detection and result analysis. Data analysis was performed by software (CellQuest) to obtain the mean fluorescence density (MFI)of the cells. And then software (GraphPad Prism8) was used for analysis, data fitting, and EC50 value calculation. […] The same method was used to detect the binding of the chimeric antibodies to endogenous CD22-negative cell MoLT4 cells (purchased from ATCC, CRL-1582) and CHO-K1 cells.

[5] = molecular target: T1, murine CD22 protein (ACROBiosystems, …); assay: ELISA, coated murine CD22, 100 nM Ab
Description: as §1, §2

[6] = molecular target: T1, murine CD22 protein (ACROBiosystems, …); assay: ELISA, coated murine CD22, 0.1 nM Ab
Description: as §1, §2

[7] = molecular target: T1, murine CD22 protein (ACROBiosystems, …); assay: ELISA, coated murine CD22, 0.00001 nM Ab
Description: as §1, §2

[8] = molecular target: T1, murine CD22 protein (ACROBiosystems, …); assay: ELISA, coated murine CD22, 0.001 nM Ab
Description: as §1, §2

[9] = molecular target: T3, human CD22, endogenous on Raji cells (human, UniProt P20273 20-847); assay: FACS, Raji cells
T3 construct: whole, on cells; Endogenous protein of the Raji cell line
T3 sequence (looked up): T2 sequence
Description: as §3

- OD450 [1]: 0.05 OD450
- OD450 [2]: 0.06 OD450
- OD450 [3]: 0.06 OD450
- EC50 [4]: 0.59 nM
- Maximum mean fluorescence intensity [4]: 33800 MFI
- OD450 [5]: 0.08 OD450
- OD450 [6]: 0.05 OD450
- OD450 [7]: 0.06 OD450
- OD450 [8]: 0.05 OD450
- EC50 [9]: 0.17 nM
- Maximum mean fluorescence intensity [9]: 23800 MFI
B2: F1.172.13 human-murine chimeric antibody (antibody, human IgG1, kappa, V domains shown)
VH: QVTLKESGPGILQSSQTLSLTCSFSGFSLSTSGMGVSWIRQPSGKGLEWLAHIYWDDDKRYNPSLKSRLTISKDTSRNQVFLKITSVDTADTATYYCARAPPPNWDEYYFDYWGQGTTLTVSS
VL: DIQMTQSPASLSASVGETVTITCRASGNIHNSLAWYQQKQGKSPQLLVHNAKTLADGVPSRFSGSGSGTQYSLKINSLQPEDFGSYYCQHFWSTPPFGGGTKLEIKR
notes: Chimeric, human IgG1 / kappa

- OD450 [1]: 0.06 OD450
- OD450 [2]: 0.07 OD450
- OD450 [3]: 0.07 OD450
- EC50 [4]: 0.33 nM
- Maximum mean fluorescence intensity [4]: 43300 MFI
- OD450 [5]: 0.09 OD450
- OD450 [6]: 0.06 OD450
- OD450 [7]: 0.06 OD450
- OD450 [8]: 0.06 OD450
- EC50 [9]: 0.07 nM
- Maximum mean fluorescence intensity [9]: 29900 MFI
B4: F1.245.2 human-murine chimeric antibody (antibody, human IgG1, kappa, V domains shown)
VH: EVQLQQSGAELVKPGASVKLSCTGSGFNIKDYYIHWVKQRTEQGLEWMGRIDPEDGETEYAPKFQDEATITSDTSSNTAYLQLSSLTYEDTAVYYCAREAAGYFYRGSSYGYFDVWGTGTTVTVSS
VL: DFQMTQTTSFLSASLGDRVTISCSASQDISNYLNWYQQKPDGTVKLLIYYTSSLHSGVPSRFSGSGSGTDYSLTISNLEPEDIATYYCQQYSMLPYTFGGGTKLEMER
notes: Chimeric, human IgG1 / kappa

- OD450 [1]: 0.05 OD450
- OD450 [2]: 0.05 OD450
- OD450 [3]: 0.07 OD450
- EC50 [4]: 0.68 nM
- Maximum mean fluorescence intensity [4]: 46600 MFI
- OD450 [5]: 0.2 OD450
- OD450 [6]: 0.05 OD450
- OD450 [7]: 0.06 OD450
- OD450 [8]: 0.05 OD450
- EC50 [9]: 0.27 nM
- Maximum mean fluorescence intensity [9]: 29300 MFI
B5: F1.257.3 human-murine chimeric antibody (antibody, human IgG1, kappa, V domains shown)
VH: QVQLQQSGPELARPGASVKLSCKASGYTFTSYGISWVKQRTGQDLEWIGEIYPKLGTTYYNEKFKDKATLTTDRSSSTAYMALRSLTSEDSAVYFCACPHYYATRGGDYWGQGTTLTVSS
VL: EIVLTQSPATLSVTPGDSVTFSCRASQSISNHLHWYQQKSHESPRLLIRYASQSISGIPSRFSGSGSGTDFTLSLSSVETEDFGVYFCQQSHSWPYTFGGGTKLEIAR
notes: Chimeric, human IgG1 / kappa; VL tied by name

- OD450 [1]: 0.05 OD450
- OD450 [2]: 0.05 OD450
- OD450 [3]: 0.06 OD450
- EC50 [4]: 0.59 nM
- Maximum mean fluorescence intensity [4]: 37100 MFI
- OD450 [5]: 0.08 OD450
- OD450 [6]: 0.05 OD450
- OD450 [7]: 0.06 OD450
- OD450 [8]: 0.05 OD450
- EC50 [9]: 0.22 nM
- Maximum mean fluorescence intensity [9]: 27900 MFI
B6: F1.161.7 human-murine chimeric antibody (antibody, human IgG1, kappa, V domains shown)
VH: QVQLQQPGAELVKPGASVKMSCKASGYTFTSYWISWVKQRPGQGLEWIGDIYPGTGSSNYNEKFKSKATLTVDTSSSTAYMQLSSLTSEDSAVYYCARLKFEGIGYWGQGTTLTVSS
VL: QIVLTQSPAIMSASLGEEITLTCSASSSVSYMHWFQQKSGTSPKLLIYSISNLASGVPSRFSGSGSGTFYSLTISSVEAEDAADYYCHQWSSYPWTFGGGTKLEIKR
notes: Chimeric, human IgG1 / kappa

The next lines start with the binder.

B1: F1.17.1 human-murine chimeric antibody (antibody, human IgG1, kappa, V domains shown)
VH: QVQLKESGPGLVAPSQSLSITCTVSGFSLSRYTVHWVRQPPGKGLEWLGMIWGGGSTDYNSALKSRLSISKDNSKSQVFLKMNSLQTDDTAMYYCARPHDFDAGGFAYWGQGTLVTVSA
VL: QIVLTQSPAILSTSPGEKVTMTCSASSRVNYMYWYQQKPGSSPRLLIYDTSNLASGVPVRFSGSGSGTSYSLTISRMEAEDAATYYCQQWTSYPLTFGAGTKLELKR
notes: Chimeric, human IgG1 / kappa
- OD450 [1]: 0.05 OD450
- OD450 [2]: 0.05 OD450
- OD450 [3]: 0.06 OD450
- EC50 [4]: 0.44 nM
- Maximum mean fluorescence intensity [4]: 36900 MFI
- OD450 [5]: 0.07 OD450
- OD450 [6]: 0.05 OD450
- OD450 [7]: 0.06 OD450
- OD450 [8]: 0.05 OD450
- EC50 [9]: 0.17 nM
- Maximum mean fluorescence intensity [9]: 28500 MFI

B3: F1.60.9 human-murine chimeric antibody (antibody, human IgG1, kappa, V domains shown)
VH: QVQLKESGPGLVAPSQSLSITCTVSGLSLNNYGVSWVRQPPGKGLEWLGVIWGDGSTNYHSALISRLSISKDNSKSQVFLKLNSLHTDDTATYYCAINWGDYWGQGTTLIVSS
VL: DIKMTQSPSSMNASLGERVTITCKASQDINSYLSWFQQKPGKSPKILIYRANRLIDGVPSRFSGSGSGQDYSLTISSLEYEDMGIYYCLQYGVFPLTFGAGTKLELKR
notes: Chimeric, human IgG1 / kappa
- OD450 [1]: 0.06 OD450
- OD450 [2]: 0.06 OD450
- OD450 [3]: 0.06 OD450
- EC50 [4]: 0.61 nM
- Maximum mean fluorescence intensity [4]: 30100 MFI
- OD450 [5]: 0.08 OD450
- OD450 [6]: 0.05 OD450
- OD450 [7]: 0.06 OD450
- OD450 [8]: 0.05 OD450
- EC50 [9]: 0.29 nM
- Maximum mean fluorescence intensity [9]: 25300 MFI
